# Earlier results in PMC3898597.
# What was measured:
# Test in all cases: SPR
# [1] = molecular target: transducin heterotrimer (Gt) (Bos taurus) (UniProt P04695)
# Gαt (Bos taurus) = Gαt (Bos taurus) (UniProt P04695)
# Gβ1γ1 (Bos taurus) = Gβ1γ1 (Bos taurus) (UniProt P62871)
# Chain of rhodopsin (P02699 whole entry): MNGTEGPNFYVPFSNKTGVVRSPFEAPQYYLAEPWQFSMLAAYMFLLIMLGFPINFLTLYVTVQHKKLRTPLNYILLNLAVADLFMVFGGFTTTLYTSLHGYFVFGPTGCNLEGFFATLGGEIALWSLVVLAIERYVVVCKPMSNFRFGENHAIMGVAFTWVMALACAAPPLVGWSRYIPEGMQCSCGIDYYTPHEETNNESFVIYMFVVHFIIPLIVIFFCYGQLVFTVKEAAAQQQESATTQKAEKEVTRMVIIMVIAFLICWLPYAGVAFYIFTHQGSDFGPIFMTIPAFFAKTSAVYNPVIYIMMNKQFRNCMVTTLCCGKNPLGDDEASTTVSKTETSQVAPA
# Chain of transducin heterotrimer (Gt) (Bos taurus) (P04695 2-350, chain 1 of 3): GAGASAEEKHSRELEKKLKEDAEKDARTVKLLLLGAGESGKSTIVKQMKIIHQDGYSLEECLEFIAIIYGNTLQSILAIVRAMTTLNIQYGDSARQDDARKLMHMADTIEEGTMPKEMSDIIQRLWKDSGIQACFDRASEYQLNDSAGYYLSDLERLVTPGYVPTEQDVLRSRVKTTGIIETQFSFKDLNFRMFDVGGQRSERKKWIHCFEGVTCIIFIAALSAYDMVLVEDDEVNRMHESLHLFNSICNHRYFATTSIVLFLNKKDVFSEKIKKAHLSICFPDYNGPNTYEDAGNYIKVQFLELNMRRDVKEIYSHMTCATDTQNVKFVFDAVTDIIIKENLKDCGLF
# Chain of transducin heterotrimer (Gt) (Bos taurus) (P62873 2-340, chain 2 of 3, further chain): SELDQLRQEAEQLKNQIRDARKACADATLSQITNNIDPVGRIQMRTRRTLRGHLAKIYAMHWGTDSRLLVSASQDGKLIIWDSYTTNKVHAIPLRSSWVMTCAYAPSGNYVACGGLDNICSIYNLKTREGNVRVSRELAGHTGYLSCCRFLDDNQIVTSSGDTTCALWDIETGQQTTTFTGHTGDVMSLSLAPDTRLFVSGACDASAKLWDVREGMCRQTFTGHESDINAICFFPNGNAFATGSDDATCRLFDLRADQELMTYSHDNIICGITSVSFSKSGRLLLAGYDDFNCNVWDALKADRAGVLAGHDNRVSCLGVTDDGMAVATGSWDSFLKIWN
# Chain of transducin heterotrimer (Gt) (Bos taurus) (P02698 2-71, chain 3 of 3, further chain): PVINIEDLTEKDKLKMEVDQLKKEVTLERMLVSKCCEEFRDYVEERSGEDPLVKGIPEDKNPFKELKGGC
# Chain of rhodopsin (recombinant) (P02699 whole entry): as the sequence (P02699 whole entry) above
# Chain of Gαt (Bos taurus) (P04695 2-350): as the sequence (P04695 2-350, chain 1 of 3) above
Kd [1] [nM],Kd (Gαt (Bos taurus)) [nM],Kd (Gβ1γ1 (Bos taurus)) [nM],Substance
13.6,300,300,rhodopsin (from UniProt P02699)
9.1,–,–,rhodopsin (recombinant) (from UniProt P02699)
